Reference: article PMC9267055

Assays:
[1] = molecular target: GPI-APs (transferred from wildtype EL cells to ManN-treated human adipocytes) (human (endogenous in K562 EL cells))
[2] = molecular target: GPI-APs (transferred from wildtype EL cells to ManN-treated human adipocytes) (human (endogenous in K562 EL cells)); remark: listed apart in the source

| Molecule | decrease in transfer of GPI-APs from wildtype EL cells to ManN-treated human adipocytes in transwell co-culture (1 week), read by SAW sensing of acceptor PM; BSA 50 mg/mL, final dilution 1:75 [1] [%] | transfer of GPI-APs from wildtype EL cells to ManN-treated human adipocytes in transwell co-culture (1 week), read by SAW sensing of acceptor PM; GPLD1 100 mU/mL (% of serum inhibition) [2] |
| --- | --- | --- |
| BSA (fraction V, defatted) (from UniProt P02769 25-607) (natural protein) | 35 | – |
| serum GPLD1 (enzyme) CGLSTHVEIGHRALEFLQLHNGRVNYRELLLEHQDAYQAGIVFPDCFYPSICKGGKFHDVSESTHWTPFLNASVHYIRENYPLPWEKDTEKLVAFLFGITSHMAADVSWHSLGLEQGFLRTMGAIDFHGSYSEAHSAGDFGGDVLSQFEFNFNYLARRWYVPVKDLLGIYEKLYGRKVITENVIVDCSHIQFLEMYGEMLAVSKLYPTYSTKSPFLVEQFQEYFLGGLDDMAFWSTNIYHLTSFMLENGTSDCNLPENPLFIACGGQQNHTQGSKMQKNDFHRNLTTSLTESVDRNINYTERGVFFSVNSWTPDSMSFIYKALERNIRTMFIGGSQLSQKHVSSPLASYFLSFPYARLGWAMTSADLNQDGHGDLVVGAPGYSRPGHIHIGRVYLIYGNDLGLPPVDLDLDKEAHRILEGFQPSGRFGSALAVLDFNVDGVPDLAVGAPSVGSEQLTYKGAVYVYFGSKQGGMSSSPNITISCQDIYCNLGWTLLAADVNGDSEPDLVIGSPFAPGGGKQKGIVAAFYSGPSLSDKEKLNVEAANWTVRGEEDFSWFGYSLHGVTVDNRTLLLVGSPTWKNASRLGHLLHIRDEKKSLGRVYGYFPPNGQSWFTISGDKAMGKLGTSLSSGHVLMNGTLKQVLLVGAPTYDDVSKVAFLTVTLHQGGATRMYALTSDAQPLLLSTFSGDRRFSRFGGVLHLSDLDDDGLDEIIMAAPLRIADVTSGLIGGEDGRVYVYNGKETTLGDMTGKCKSWITPCPEEKAQYVLISPEASSRFGSSLITVRSKAKNQVVIAAGRSSLGARLSGALHVYSLGSD | – | 70 |
